From US20070054846A1, “Bcl-w structure and uses therefor” (priority 2002, published 2007)
Residue numbers refer to the chain shown, from its start. Names and notes keep the numbering of the source.

Experiments:
Bim-BH3 peptide = target: T1, Bim-BH3 peptide (mouse); assay: NMR, 15N-NOESY-HSQC chemical shift changes
T1 peptide: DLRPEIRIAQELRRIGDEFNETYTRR

[1] = target: T2, FLAG Bcl-xL (full-length) (UniProt Q07817 1-233); assay: co-immunoprecipitation from 35S-labelled 293T lysates with anti-FLAG (α-F), anti-EE (α-E) and control anti-HA (α-H) [upper right gel]
T2 construct: also called FLAG-tagged full-length Bcl-xL; not shown: FLAG tag
T2 sequence (Q07817 whole entry): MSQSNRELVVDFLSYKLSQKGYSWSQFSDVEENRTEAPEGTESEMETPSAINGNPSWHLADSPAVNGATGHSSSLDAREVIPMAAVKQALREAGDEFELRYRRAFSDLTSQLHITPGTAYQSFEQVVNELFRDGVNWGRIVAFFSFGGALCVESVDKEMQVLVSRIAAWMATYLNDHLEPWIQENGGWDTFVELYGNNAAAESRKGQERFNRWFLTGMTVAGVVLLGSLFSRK
Text: FIG. 4 comprises photographic representations showing that the in vivo and in vitro binding properties of Bcl-xL resemble that of Bcl-w. FIG. 4A is a photographic representation showing that the C-terminus of Bcl-w restricts access to the binding groove in vivo. Equivalent ³⁵S-labeled 293T lysates obtained from cells co-expressing FLAG Bcl-w or Bcl-wΔC29, and EE-BimEL or BimEL-L150A, were immunoprecipitated using the anti-FLAG M2 (α-F), anti-EE (α-E) or control anti-HA (α-H) monoclonal antibodies. The immunoprecipitations were fractionated on SDS-PAGE gels. FIG. 4B is a photographic representation showing that the C-terminus of Bcl-xL restricts access to the binding groove in vivo. Co-precipitation experiments similar to those described in FIG. 4A using lysates from cells co-expressing FLAG Bcl-xL or Bcl-xLΔC24, and EE-BimL or BimL-L94A. […]
Cell culture, stable transfections into FDC-P1, transient transfections into 293T human embryonic kidney cells, metabolic labelling with ³⁵S-methionine/cysteine (NEN) and co-immunoprecipitation have been previously described (O'Connor et al., 1998, Moriishi et al., 1999; Huang et al., 1998; Wilson-Annan et al., 2003). […] The immunoprecipitates were resolved by SDS-PAGE (Novex), transferred onto nitrocellulose membranes (APB) and the proteins detected by fluorography (Amplify; APB).

BimLΔC27 [2] = target: T3, BimLΔC27 (mouse, UniProt O54918-2 1-113); assay: SPR (BIAcore 2000), BimLΔC27 immobilised
T3 construct: Truncation by 27 C-terminal residues is stated, the end residue is not; Numbering (L94) is that of the BimL isoform, not of the canonical BimEL entry; Immobilised on the CM5 chip in SPR; soluble protein in GST pull-downs; also called C-terminally truncated BimL; wt BimLΔC27
T3 sequence: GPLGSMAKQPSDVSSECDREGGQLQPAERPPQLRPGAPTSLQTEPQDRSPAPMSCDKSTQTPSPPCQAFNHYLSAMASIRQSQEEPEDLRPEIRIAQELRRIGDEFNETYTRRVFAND
Protocol: (§1) Similar results were obtained when a corresponding mutation (L138A) was introduced into another BH3-only protein, Bmf (not shown).
(§2) Analysis of protein interactions by surface plasmon resonance was carried out on a BIAcore 2000 biosensor (BIAcore). For the immobilisation to BIAcore CM 5 sensorchips (BIAcore), wild-type or mutant Bim proteins were buffer exchanged into 20 mM Na-acetate, pH 4.5. N-hydroxysuccinimide coupling and binding analysis was done as described previously (Lackmann et al., 1997). In order to minimise mass-transport mediated effects the kinetic experiments were routinely carried out at 20 μl/min. Bcl-w binding at concentrations between 2 and 0.03 μM in running buffer (10 mM HEPES, pH 7.4, 150 mM NaCl, 3.4 mM EDTA, 0.005% Tween 20) was performed on sensorchip surfaces derivatised on parallel channels with a non-relevant protein, BimLΔC27 and BimLΔC27-L94A. The binding kinetics were derived from the sensorgrams following subtraction of baseline responses (measured on the control channel) by ‘global analysis’ using the BIA Evaluation software (vers. 3.02, BIAcore).

BimLΔC27-L94A [3] = target: T4, BimLΔC27-L94A (mouse, UniProt O54918-2 1-113); assay: SPR (BIAcore 2000), BimLΔC27-L94A immobilised; Bcl-w truncated by 29 residues (Bcl-wΔC29)
T4 construct: also called Bim containing the L94 mutation; L94A mutant
T4 sequence: T3 sequence with L99A
Protocol: as §1, §2

BimLΔC27-L94A [4] = target: T4, BimLΔC27-L94A; assay: SPR (BIAcore 2000), global fit to a 1:1 Langmuir model. Sheet heads Bcl-w 'Immobilized' and Bim 'Analyte'; text says Bim immobilised, Bcl-w in solution
Protocol: (§3) FIG. 3A is a table showing the binding constants for various Bcl-w-BH3-only ligand complexes, which were determined using Biosensor experiments as described herein. FIG. 3B is a graphical representation showing the interaction kinetics of Bcl-w binding to BimLΔC27. Samples of serially diluted Bcl-w (2 μM-62.5 nM) were analysed on a BimLΔC27 sensor surface as described in Experimental Procedures. […] FIG. 3C is a graphical representation showing the interaction kinetics of Bcl-w or Bcl-wΔC29 binding to BimLΔC27 or BimLΔC27-L94A. […] Relative responses of samples between 1 μM and 62.5 nM are shown. FIG. 3D is a photographic representation of a GST pull-down assay to assess the binding capacity of Bcl-w proteins. Approximately equivalent amounts of the indicated GST-Bcl-w proteins were mixed with either soluble wt BimLΔC27 or soluble BimLΔC27-L94A. The intensity of the Bim band indicated the amount of protein that bound to Bcl-w. Molecular weight standards in kDa are indicated.
as §2, with “3.02, BIAcore). The surface of the chip was regenerated with 50 mM 1,2-diethylamine containing 0.1% Triton X100, followed by two washes with running buffer.” for “3.02, BIAcore).”

BimLΔC27 [5] = target: T3, BimLΔC27; assay: as above
Protocol: as §3
as §2, with “3.02, BIAcore). The surface of the chip was regenerated with 50 mM 1,2-diethylamine containing 0.1% Triton X100, followed by two washes with running buffer.” for “3.02, BIAcore).”

BimLΔC27-L94A [6] = target: T4, BimLΔC27-L94A; assay: SPR (BIAcore 2000)
Protocol: as §1, §2

BimLΔC27 [7] = target: T3, BimLΔC27; assay: SPR (BIAcore 2000), BimLΔC27 immobilised, Bcl-w in solution, global 1:1 Langmuir fit
Protocol: as §1, §2

BimLΔC27-L94A [8] = target: T4, BimLΔC27-L94A; assay: SPR (BIAcore 2000), BimLΔC27-L94A immobilised, Bcl-w in solution; full-length Bcl-w
Protocol: as §1, §2

Bim = target: T5, Bim (UniProt O54918-2 1-140, limits assumed); assay: not described
T5 construct: also called BH3-only protein Bim
T5 sequence (looked up): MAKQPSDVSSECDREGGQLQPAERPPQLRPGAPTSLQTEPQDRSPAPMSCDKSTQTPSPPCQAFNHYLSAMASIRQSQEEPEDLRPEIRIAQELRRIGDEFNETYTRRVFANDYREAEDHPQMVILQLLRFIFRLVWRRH

B1: Bcl-wΔC10 (A128E), purified, NMR sample (other)
chain: GPLGSMATPASAPDTRALVADFVGYKLRQKGYVCGAGPGEGPAADPLHQAMRAAGDEFETRFRRTFSDLAAQLHVTPGSAQQRFTQVSDELFQGGPNWGRLVAFFVFGAALCAESVNKEMEPLVGQVQEWMVEYLETRLADWIHSSGGWAEFTALYGDGALEEARRLREGNWASVRTVLTGAVALGAL
notes: Isotope-labelled (15N) protein for the NOESY-HSQC with the Bim-BH3 peptide
Question: Does B1 bind (Bim-BH3 peptide)?
Answer: Result: binds

B2: EE-BimL-L94A (ligand, UniProt O54918-2 1-140, looked up)
chain: T5 sequence (looked up) with L94A
notes: also called L94A mutant; not shown: EE (Glu-Glu) tag
Question: Does B2 bind [1]?
Answer: Result: no binding

B3: Bcl-wΔC29 (purified recombinant protein) (other)
chain: GPLGSMATPASAPDTRALVADFVGYKLRQKGYVCGAGPGEGPAADPLHQAMRAAGDEFETRFRRTFSDLAAQLHVTPGSAQQRFTQVSDELFQGGPNWGRLVAFFVFGAALCAESVNKEMEPLVGQVQEWMVAYLETRLADWIHSSGGWAEFTALYGDGALEEARRLRE
notes: Residue limits 1-164 follow from 193 aa minus 29; also called Bcl-w truncated by 29 residues at the C-terminus
Question: B3 was tested. Which Kd (BimLΔC27 [2]) did it give?
Answer: Its Kd is 11 nM.

Question: And the “fold increase in the association rate against full-length Bcl-w” value (BimLΔC27 [2])?
Answer: Its value is 3 fold.

Question: And the Kd (BimLΔC27-L94A [3])?
Answer: Its Kd is 13 nM.

Question: And the koff (BimLΔC27-L94A [4])?
Answer: Its koff is 0.0028 s⁻¹.

Question: What about the kon (BimLΔC27-L94A [4]) of the same binder?
Answer: The kon was 210000 M⁻¹ s⁻¹.

Question: And the koff (BimLΔC27 [5])?
Answer: Its koff is 0.0061 s⁻¹.

Question: And the kon (BimLΔC27 [5])?
Answer: Its kon is 570000 M⁻¹ s⁻¹.

B4: Bcl-w (full-length, purified recombinant protein) (other)
chain: GPLGSMATPASAPDTRALVADFVGYKLRQKGYVCGAGPGEGPAADPLHQAMRAAGDEFETRFRRTFSDLAAQLHVTPGSAQQRFTQVSDELFQGGPNWGRLVAFFVFGAALCAESVNKEMEPLVGQVQEWMVAYLETRLADWIHSSGGWAEFTALYGDGALEEARRLREGNWASVRTVLTGAVALGALVTVGAFFASK
notes: Expressed as GST fusion in E. coli, released with PreScission protease; analyte in solution in the BIAcore experiments; also called full length Bcl-w; wild-type Bcl-w
Question: What does the source list for B4?
Answer: fold decrease in the association rate against BimLΔC27 (BimLΔC27-L94A [6]): 10 fold; fold increase in the dissociation rate against BimLΔC27 (BimLΔC27-L94A [6]): 5 fold; fold reduction of affinity against BimLΔC27 (BimLΔC27-L94A [6]): > 60 fold; Kd (BimLΔC27 [7]): 24 nM; koff (BimLΔC27-L94A [4]): 0.02 s⁻¹; kon (BimLΔC27-L94A [4]): 13000 M⁻¹ s⁻¹; koff (BimLΔC27 [5]): 0.0043 s⁻¹; kon (BimLΔC27 [5]): 180000 M⁻¹ s⁻¹; Kd (BimLΔC27-L94A [8]): 1600 nM

B5: Bcl-w with Arg95 mutated to Ala (other)
chain: MATPASAPDTRALVADFVGYKLRQKGYVCGAGPGEGPAADPLHQAMRAAGDEFETRFRRTFSDLAAQLHVTPGSAQQRFTQVSDELFQGGPNWGALVAFFVFGAALCAESVNKEMEPLVGQVQEWMVAYLETRLADWIHSSGGWAEFTALYGDGALEEARRLREGNWASVRTVLTGAVALGALVTVGAFFASK
notes: Construct and assay not described; also called Bcl-w R95A
Question: Does B5 bind (Bim)?
Answer: Result: no binding
